Test: yeast display, Sf9 membrane polyspecificity reagent, FACS + sequencing; frameworks hold sequencing errors
Outline: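 Nanobodies from a synthetic yeast display library (Saccharomyces cerevisiae BJ5465), induced 36–48 hours with galactose, were stained 1 hour at 4 °C with 10% biotinylated, detergent-solubilized Sf9 membrane reagent, enriched on streptavidin microbeads, then FACS-sorted. Anti-HA (expression) and streptavidin (reagent binding) fluorescence set low and high (top ~1%) gates. Polyreactivity labels come from the gate of origin. Genes were colony-PCR amplified, MiSeq 2 × 250 sequenced and filtered by CDR length.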

Row | Sequence | polyreactivity (PSR sort gate)
1 | QVQLVESGGGLVQAGGSLRLSCAASGSIFWGYAMGWYRQAPGKERELVAAIRNGGSTNYADSVKGRFTISRDNAKNTVYLQMNSLKPEDTAVYYCAKYYYYLRSARKYDYWGQGTQVTVSS | high polyreactivity
2 | QVQLVESGGGLVQAGGSLRLSCAASGSIFWGYAMGWYRQAPGKERELVASSTNYADSVKGRFTISRDNAKNTVYLQMNSLKPEDTAVYYCAREQGVNRNHDYWGQGTQVTVSS | low polyreactivity
3 | QVQLVESGGGLVQAGGSLRLSCAASGSIFWGYAMGWYRQAPGKERELVAVITWSVGRTYYADSVKGRFTISRDNAKNTVYLQMNSLKPEDTAVYYCNAKSWYGGSYYRYDYWGQGTQVTVSS | low polyreactivity
4 | QVQLVESGGGLVQAGGSLRLSCAASGSIFWIYAMGCYRQAPGKERELVATITRRGGSTYYADSVKGRFTISRDNAKNTVYLQMNSLKPEDTAVYYCATEPGYTYLTSYKYDYWGQGTQVTVSS | low polyreactivity
5 | QVQLVESGGGLVQAGGSLRLSCAASGSIFWKNVMGSYRQAPGKERELVAGISQNGGSTTYADSVKGRFTISRDNAKNTVYLQMNSLKPEDTAVYYCAAKRYGPFKYGYWGQGTQVTVSS | high polyreactivity
6 | QVQLVESGGGLVQAGGSLRLSCAASGSIFWKYAMGWYRQAPGKERELVAAISRSSSTTYYADSVKGRFTISRDNAKNTVYLQMNSLKPEDTAVYYCAAYYRSRVSDDYWGQGTQVTVSS | high polyreactivity
7 | QVQLVESGGGLVQAGGSLRLSCAASGSIFWLYAMGWYRQAPGKERELVAAITRRGGSTYYADSVKGRFTISRDNAKNTVYLQMNSLKPEDTAVYYCNRLYYSGSGASLDYWGQGTQVTVSS | high polyreactivity
8 | QVQLVESGGGLVQAGGSLRLSCAASGSIFWLYAMGWYRQAPGKERELVAAITWSGGRTYYADSVKGRFTISRDNAKNTVYLQMNSLKPEDTAVYYCARRQWPWYSNPARGGKYDYWGQGTQVTVSS | low polyreactivity
9 | QVQLVESGGGLVQAGGSLRLSCAASGSIFWNNAMGWYIQAPGKEREWVAGISSAGSTNYADSVKGRFTISRDNAKNTVYLQMNSLKPEDTAVYYCAASYFRDYVWLRSNVRYYYWGQGTQVTVSS | low polyreactivity
10 | QVQLVESGGGLVQAGGSLRLSCAASGSIFWQTPMGWYRQAPGKERELVAAITRSGGSTYYADSVKGRFTISRDNAKITVYLQMNSLKPEDTLVYYCKKYGYKGGVGDDYWGQGTQVTVSS | high polyreactivity
11 | QVQLVESGGGLVQAGGSLRLSCAASGSIFWRYAMGWYRQAPGKERELVAVISRSGGRTYYADSVKGRFTISRDNAKNTVYLQMNSLKPEDTAVNYCAADYYGVYSKRYGFDYWGQGTQVTVSS | high polyreactivity
12 | QVQLVESGGGLVQAGGSLRLSCAASGSIFWRYSMGWYRQAPGKERELVAAINYSTTRTYYADSVKGRFTISRDNAKNTVYLQMNSLKPEDTAVYYCAADSRVDEGEYWGQGTQVTVSS | high polyreactivity
13 | QVQLVESGGGLVQAGGSLRLSCAASGSIFWSNAMGWYIQAPGKERELVAAITGGGTTNYADSVKGRFTISRDNAKNTVYLQMNSLKPEDTAVVYTVSSAQYDYWGQGTQVTVSS | low polyreactivity
14 | QVQLVESGGGLVQAGGSLRLSCAASGSIFWSYAMGWYRHAPGKESELVAAITYSGTSTYYADSVKGRFTISRDTAKNTVYLQMNSLKPEDTAVYYCAASPFSRSRNDYWGQGTQVTLSS | low polyreactivity
15 | QVQLVESGGGLVQAGGSLRLSCAASGSIFWSYAMGWYRQAPGKERELVAAIRRGGSTNYADSVKGRFTISRDNAKNTVYLQMNSLKPEDTAVYYCAKSRGVRREPPKYATTYNYWGQGTQVTVSS | low polyreactivity
16 | QVQLVESGGGLVQAGGSLRLSCAASGSIFWTYAMGWSRQAPGKERELVATITYSDGNTYYADSVKGRFTISRDNAKNTVYFQMNSLKPEDTAVYYCNADGIYATISGYRYDYWGQGTQVTVSS | low polyreactivity
17 | QVQLVESGGGLVQAGGSLRLSCAASGSIFWVYAMGWYRQAPGKEREFVAAITYSGGSTYYADSVKGRFTISRDNAKNTVYLQMNSLKPEDTAVYYCAADYDYDYGSRYYYWGQGTQVTVSS | low polyreactivity
18 | QVQLVESGGGLVQAGGSLRLSCAASGSIFWVYAMGWYRQAPGKERELVAAISNRGGSTYYSDSVKGRFTISRDNAKITVYLQMNSLKPEDTAVYYCAAVVAHHYYWGQGTQVTVSS | high polyreactivity
19 | QVQLVESGGGLVQAGGSLRLSCAASGSIFWWYTMGRYRQAPGKERELVAAITWNADGTYYADSVKGRFTISRDNAKNTVYLQMNSLKPEDTAVYYCAADQYYLDWGGGYDYWGQGPQVTVSS | low polyreactivity
20 | QVQLVESGGGLVQAGGSLRLSCAASGSIFWYNAMGWYIHAPWNERELVAAITSSSGRTRYADSEKGRFTISRDNAKNTVYLQMNSLKQEDTAVYYCAVAEGYSPAYLRDYWGQGTQVTVSS | high polyreactivity
21 | QVQLVESGGGLVQAGGSLRLSCAASGSIFWYNAMGWYRQAPGKERELVAAISRSGSRTYYADSVKGRFTISRDNAKNTVYVQMTSLKPEATAVYYCARVRPRGLYFVLHYDYWGQGTQVTVSS | high polyreactivity
22 | QVQLVESGGGLVQAGGSLRLSCAASGSIFWYNAMGWYRQAPGKERELVAAITSGGTTSYADSVKGRFTISRDNAKNTVYLQMNSLKPEDTAVYYCAKDWNDDQHSWDTPFDYWGQGTQVTVSS | low polyreactivity

Row | Sequence | polyreactivity (PSR sort gate)
23 | QVQLVESGGGLVQAGGSLRLSCAASGSIFWYNAMVWYRQAPGKERELVAAISYSGDRTYYADSVKGRFTISRDNAKYTVYLQMNSLKPEDTAFYYCAKAGTGFYNSWWEDYWGQGTQVTVSS | low polyreactivity
24 | QVQLVESGGGLVQAGGSLRLSCAASGSIFWYNSMGWYRQAPGKERELVAAISYRGGRTYYADSVKGRFTISRDNAKNTVYLQMNSLKPEDTAVYYCNAPRYLGGGQDALGDYWGQGTQVTVSS | high polyreactivity
25 | QVQLVESGGGLVQAGGSLRLSCAASGSIFWYYAMGWYRQAPGKERELVAAISGSGTRTYYADSVKGRFTISRDNAKNTVYLQMNSLKPEDTAVYYCAATAVRQSGRYLSSSGYDYWGQGTQVTVSS | high polyreactivity
26 | QVQLVESGGGLVQAGGSLRLSCAASGSIFWYYAMGWYRQAPGKERELVAAITGSGVRTYYADSVKGRFTISRDNAKNTVYLQMNSLKPEDTAVYYCNAVSSHSFYFYGDHNYWGQGTQVTVSS | low polyreactivity
27 | QVQLVESGGGLVQAGGSLRLSCAASGSIFWYYAMGWYRQAPGKERELVARITFSGSRTHYADSVKGRFTISRDNAKNTVYLQMNSLKPEDTSVYYCATDTVYGNDYWGQGTQVTVSS | low polyreactivity
28 | QVQLVESGGGLVQAGGSLRLSCAASGSIFWYYAMGWYRQAPGKERELVATITSGGTNYADSVKGRFTISRDNAKNTVYLQMNSLKPEDTAVYYCNADVSWSRIFYLGYDSNDYWGQGTQVTVSS | low polyreactivity
29 | QVQLVESGGGLVQAGGSLRLSCAASGSIFWYYGMGWYRQAPGKERELVAAISSGGSTNYADSVKVRFAISRDNAKNTVYLQMNSLKPEDTAVYYCAVRFTFPRYPASYSRYYYWGQGTQVTVSS | high polyreactivity
30 | QVQLVESGGGLVQAGGSLRLSCAASGSIFYANAMGWYRQAPGKERELVAAIDGGSTYYADSVKGRFTISRDNAKNTVYLQMNSLKPEDTAVYYCAADYFNYRGYTYLGDYWGQGTQVTVSS | low polyreactivity
31 | QVQLVESGGGLVQAGGSLRLSCAASGSIFYAYAMGWYRQAPGKERELVATISSVGSTYYADSVKGRFTISRDNAKNTVYLQMNSLKPEDTAVYYCAKQRIVVYKTGYDYWGQGTQVTVSS | low polyreactivity
32 | QVQLVESGGGLVQAGGSLRLSCAASGSIFYAYAMGWYTQAPGKERELVATISSVGSTYYADSVKGRFTISRDNAKNTVYLQMNSLKPEDTAVYYCAKQRIVVYKTGYDYWGQGTQVTVSS | low polyreactivity
33 | QVQLVESGGGLVQAGGSLRLSCAASGSIFYAYAMRWYRQAPGKERELVAVINSGGSTYYADSVKGRFTISRDNAKNTVYLQMHSLKPEDTAVYYCNATQDRGKYDYPPRGRGYYYWGQGTQVTVSS | high polyreactivity
34 | QVQLVESGGGLVQAGGSLRLSCAASGSIFYDAMGWYRQAPGKERELVAAITSSGGDTSYADSVKGRCTISRDNAKNTVYLQMNSLKPEDTAGYYCNADTYYVEYTAFDYWGQGTQVTVSS | low polyreactivity
35 | QVQLVESGGGLVQAGGSLRLSCAASGSIFYDNAMGWYRPAPGKERELVATIRGGGNTYYADSVKGRFTISRDNAKNTVYLQMNSLKPEDTAVYYCSKQSDFPGVPLVYGVYGYDYWGQGTQVTVSS | low polyreactivity
36 | QVQLVESGGGLVQAGGSLRLSCAASGSIFYDNAMGWYRQAPGKERELVAAIRGRGGSTYYADSVKGRFTISRDNAKNTVYLQMNSLKPVDTAVYYCAAERPIAVVRYYTYYYWGQGTQVTVSS | high polyreactivity
37 | QVQLVESGGGLVQAGGSLRLSCAASGSIFYDNAMGWYRQAPGKERELVASIRYSGVRTYYADSVKGRFTISRDNAKNTVYLQMNSLKPEDTAVYYCAADVYRQFYPFKSDYWGQGTQVTVSS | high polyreactivity
38 | QVQLVESGGGLVQAGGSLRLSCAASGSIFYDNAMGWYRQAPGKERELVATIRGGGNTYYADSVKGRFTISRDNAKNTVYLQMNSLKPEDTAVYYCAKQSDFPGVPLVYGVYGYDYWGQGTQVTVSS | low polyreactivity
39 | QVQLVESGGGLVQAGGSLRLSCAASGSIFYDYAMGWYRQAPGKERELVAAINSGDSTYYADSVKGRFTISRDNAKNTVYLQMNSLKPEDTAVYYCAATYFSPYIEYDYWGQGTQVTVSS | low polyreactivity
40 | QVQLVESGGGLVQAGGSLRLSCAASGSIFYDYAMGWYRQAPGKERELVAALTNDDSSTYYADSVKGRFTISRDNAKNTVYLQMNSLKPEDTAVYYCRFKYAVAHQFWVYRYDYWGQGTQVTVSS | low polyreactivity
41 | QVQLVESGGGLVQAGGSLRLSCAASGSIFYDYAMGWYRQAPGKERELVADITDDSTNYADSVKGRFTISRDNAKNTVYLQMNSLKPEDTAVYYCAVDWYWGWYWDGGVLTYYYWGQGTQVTVSS | low polyreactivity
42 | QVQLVESGGGLVQAGGSLRLSCAASGSIFYDYEMGWYRQAPGKERELVASINTGGSTNYADSVKGRFTISRDNAKNTVYLKMNSLKPEDTAVYYCNAPRGYPTSANHLDYWGQGTQVTVSS | low polyreactivity
43 | QVQLVESGGGLVQAGGSLRLSCAASGSIFYENAMGWYRKAPGKEREFVATIDLIGDRTYYADSVKGRFTISRDNAKNTVYLQMNSLKPEDTAVYYCAAERVGVFFRYDYWGQGTQVTVSS | low polyreactivity

Reference: the nanobody polyreactivity screen of Harvey et al. (2022)
